Laboratory results: patent US20250115669A1, “FGFR1/KLB Targeting Agonistic Antigen-Binding Proteins and Conjugates Thereof with GLP-1R Agonistic Peptides” (SANOFI, priority 2020, published 2025)

Molecular target: T1, human beta-Klotho (Homo sapiens, UniProt Q86Z14)
T1 sequence (Q86Z14 1-1044): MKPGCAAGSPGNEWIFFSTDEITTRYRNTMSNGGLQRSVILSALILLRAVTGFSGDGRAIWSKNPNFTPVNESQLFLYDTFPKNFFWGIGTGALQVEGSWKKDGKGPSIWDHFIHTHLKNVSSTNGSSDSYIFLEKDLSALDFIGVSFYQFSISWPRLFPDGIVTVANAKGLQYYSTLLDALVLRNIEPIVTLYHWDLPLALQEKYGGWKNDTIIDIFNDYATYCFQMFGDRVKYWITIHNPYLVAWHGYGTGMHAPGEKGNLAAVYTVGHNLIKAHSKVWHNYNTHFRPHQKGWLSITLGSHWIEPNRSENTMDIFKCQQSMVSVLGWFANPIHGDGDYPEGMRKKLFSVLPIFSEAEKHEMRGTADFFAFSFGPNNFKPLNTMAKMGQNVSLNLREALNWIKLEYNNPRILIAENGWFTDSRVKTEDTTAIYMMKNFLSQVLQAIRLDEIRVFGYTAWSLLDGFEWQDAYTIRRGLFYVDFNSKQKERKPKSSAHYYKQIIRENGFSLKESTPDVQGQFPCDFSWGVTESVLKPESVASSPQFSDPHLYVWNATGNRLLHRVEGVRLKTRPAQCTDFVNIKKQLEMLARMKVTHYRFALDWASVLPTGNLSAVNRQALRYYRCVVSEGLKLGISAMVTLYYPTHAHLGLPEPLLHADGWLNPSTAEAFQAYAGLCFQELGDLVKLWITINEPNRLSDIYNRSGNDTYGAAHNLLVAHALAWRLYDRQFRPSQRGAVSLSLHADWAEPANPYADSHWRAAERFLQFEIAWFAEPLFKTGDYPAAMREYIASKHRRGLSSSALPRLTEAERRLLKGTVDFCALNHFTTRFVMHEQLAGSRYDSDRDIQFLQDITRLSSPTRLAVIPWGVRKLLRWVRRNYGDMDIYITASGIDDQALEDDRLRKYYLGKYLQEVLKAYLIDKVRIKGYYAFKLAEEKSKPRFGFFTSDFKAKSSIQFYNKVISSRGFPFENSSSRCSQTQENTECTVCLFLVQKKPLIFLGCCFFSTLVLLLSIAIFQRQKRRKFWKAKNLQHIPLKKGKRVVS
Test: SPR off-rate screening of antibody mutants (human beta-Klotho captured by anti-His antibody)
Format: binding
Details: mean, n=3
Protocol: Screening of antibody mutants for binding to human beta-Klotho was determined in a different SPR assay set up. Human beta-Klotho was affinity captured by an anti-His antibody (from His capture kit, GE Healthcare) that was immobilized to a series S CM5 chip (GE Healthcare) by amine reactive coupling as described above. The antibody samples were used as analytes at 50 nmol/L concentration. Association time was 240 sec and dissociation time was 300 sec. Chip surfaces were regenerated using the regeneration solution supplied with the His capture kit. The off-rates (kd) were determined using single exponential fitting in the Biacore 8K Evaluation Software version 1.1.1.7442 (GE Healthcare).

Substance | koff human KLB
Ab0186: IgG4 PE; 16H7 VL; 16H7 VH (M34V, I83T) | 0.000104 s⁻¹
Ab0189: IgG4 PE; 16H7 VL (D50E); 16H7 VH (M34V, I83T) | 0.000387 s⁻¹
Ab0191: IgG4 PE; 16H7 VL (N93E); 16H7 VH (M34V, I83T) | 0.000144 s⁻¹
Ab0196: IgG4 PE; 16H7 VL (D50E); 16H7 VH (I83T, D109E) | 0.00194 s⁻¹
Ab0198: IgG4 PE; 16H7 VL (N93E); 16H7 VH (I83T, D109E) | 0.000346 s⁻¹
Ab0199: IgG4 PE; 16H7 VL (D95E); 16H7 VH (I83T, D109E) | invalid fit
Ab0201: IgG4 PE; 16H7 VL (N25S); 16H7 VH (M34V, I83T, D109E) | 0.000336 s⁻¹
Ab0202: IgG4 PE; 16H7 VL (D49Y); 16H7 VH (M34V, I83T, D109E) | 0.00161 s⁻¹
Ab0203: IgG4 PE; 16H7 VL (D50E); 16H7 VH (M34V, I83T, D109E) | 0.00151 s⁻¹
Ab0204: IgG4 PE; 16H7 VL (D91T); 16H7 VH (M34V, I83T, D109E) | 0.00133 s⁻¹
Ab0207: IgG4 PE; 16H7 VL; 16H7 VH (I83T, D109Y) | 0.00188 s⁻¹
Ab0208: IgG4 PE; 16H7 VL (N25S); 16H7 VH (I83T, D109Y) | 0.0021 s⁻¹
Ab0209: IgG4 PE; 16H7 VL (D49Y); 16H7 VH (I83T, D109Y) | invalid fit
Ab0212: IgG4 PE; 16H7 VL (N93E); 16H7 VH (I83T, D109Y) | 0.00185 s⁻¹
Ab0213: IgG4 PE; 16H7 VL (D95E); 16H7 VH (I83T, D109Y) | invalid fit
Ab0215: IgG4 PE; 16H7 VL (N25S); 16H7 VH (I83T, D109S) | 0.00125 s⁻¹
Ab0216: IgG4 PE; 16H7 VL (D49Y); 16H7 VH (I83T, D109S) | 0.00984 s⁻¹
Ab0218: IgG4 PE; 16H7 VL (D91T); 16H7 VH (I83T, D109S) | 0.00668 s⁻¹
Ab0219: IgG4 PE; 16H7 VL (N93E); 16H7 VH (I83T, D109S) | 0.000915 s⁻¹
Ab0220: IgG4 PE; 16H7 VL (D95E); 16H7 VH (I83T, D109S) | invalid fit

The remaining lines, values ahead:

koff human KLB | Substance
0.000156 s⁻¹ | Ab0187: IgG4 PE; 16H7 VL (N25S); 16H7 VH (M34V, I83T)
0.00084 s⁻¹ | Ab0188: IgG4 PE; 16H7 VL (D49Y); 16H7 VH (M34V, I83T)
0.000195 s⁻¹ | Ab0190: IgG4 PE; 16H7 VL (D91T); 16H7 VH (M34V, I83T)
invalid fit | Ab0192: IgG4 PE; 16H7 VL (D95E); 16H7 VH (M34V, I83T)
0.000337 s⁻¹ | Ab0193: IgG4 PE; 16H7 VL; 16H7 VH (I83T, D109E)
0.000402 s⁻¹ | Ab0194: IgG4 PE; 16H7 VL (N25S); 16H7 VH (I83T, D109E)
0.00267 s⁻¹ | Ab0195: IgG4 PE; 16H7 VL (D49Y); 16H7 VH (I83T, D109E)
0.00167 s⁻¹ | Ab0197: IgG4 PE; 16H7 VL (D91T); 16H7 VH (I83T, D109E)
0.000369 s⁻¹ | Ab0200: IgG4 PE; 16H7 VL; 16H7 VH (M34V, I83T, D109E)
0.000334 s⁻¹ | Ab0205: IgG4 PE; 16H7 VL (N93E); 16H7 VH (M34V, I83T, D109E)
invalid fit | Ab0210: IgG4 PE; 16H7 VL (D50E); 16H7 VH (I83T, D109Y)
invalid fit | Ab0211: IgG4 PE; 16H7 VL (D91T); 16H7 VH (I83T, D109Y)
0.00121 s⁻¹ | Ab0214: IgG4 PE; 16H7 VL; 16H7 VH (I83T, D109S)
0.002 s⁻¹ | Ab0217: IgG4 PE; 16H7 VL (D50E); 16H7 VH (I83T, D109S)
